Laboratory results: FireProtDB (doi:10.1074/jbc.270.30.17712)
Several values for one entry are separate records, joined by “and”; a condition that tells them apart may be missing. Equal values may be shown once.

B1: Tryptophan synthase alpha chain, P0A877 (parent)
chain: MERYESLFAQLKERKEGAFVPFVTLGDPGIEQSLKIIDTLIEAGADALELGIPFSDPLADGPTIQNATLRAFAAGVTPAQCFEMLALIRQKHPTIPIGLLMYANLVFNKGIDEFYAQCEKVGVDSVLVADVPVEESAPFRQAALRHNVAPIFICPPNADDDLLRQIASYGRGYTYLLSRAGVTGAENRAALPLNHLVAKLKEYNAAPPLQGFGISAPDQVKAAIDAGAAGAISGSAIVKIIEQHINEPEKMLAALKVFVQPMKAATRS

Variants of: B1
Conditions: Escherichia coli (strain K12); pH 7.8; 23 °C; Urea; Absorbance; Potassium phosphate 10 mM; transition: 3; reversible: yes; structure 1WQ5; whole UniProt chain shown

| Variant | ddG of mutation (higher = less stable) | denaturant m value | denaturant midpoint (higher = more stable) | unfolding free energy |
| --- | --- | --- | --- | --- |
| MERYESLFAQLKERKEGAFVPFVTLGDPGIEQSLKIIDTLIEAGADALELGIPFSDPLADGPTIQNATLRAFAAGVTPAQCFEMLALIRQKHPTIPIGLLMYANLVFNKGIDEFYAQCEKVGVDSVLVADVPVEESAPWRQAALRHNVAPIFICPPNADDDLLRQIASYGRGYTYLLSRAGVTGAENRAALPLNHLVAKLKEYNAAPPLQGFGISAPDQVKAAIDAGAAGAISGSAIVKIIEQHINEPEKMLAALKVFVQPMKAATRS [F139W] | 0.7 kcal/mol and 0.6 kcal/mol | 2.3 kcal/mol/M and 1.2 kcal/mol/M | 2.46 M and 3.8 M | 5.7 kcal/mol and 4.6 kcal/mol |
| MERYESLFAQLKERKEGAFVPFVTLGDPGIEQSLKIIDTLIEAGADALELGIPFSDPLADGPTIQNATLRAFAAGVTPAQCFEMLALIRQKHPTIPIGLLMYANLVFNKGIDEFYAQCEKVGVDSVLVADVPVEESAPFRQAALRHNVAPIFICPPNADDDLLRQIASYGRGYTYLLSRAGVTGAENRAALPLNHLVAKLKEYNAAPPLQGFGISAPDQVKAAIDAGAAGAISGSAIVKIIEQHINEPEKMLAALKVWVQPMKAATRS [F258W] | 1.4 kcal/mol and 1 kcal/mol | 1.9 kcal/mol/M and 1.2 kcal/mol/M | 2.68 M and 3.58 M | 5 kcal/mol and 4.2 kcal/mol |
| MERYESLFAQLKERKEGAFVPFVTLGDPGIEQSLKIIDTLIEAGADALELGIPFSDPLADGPTIQNATLRAFAAGVTPAQCFEMLALIRQKHPTIPIGLLMYANLVFNKGIDEFYAQCEKVGVDSVLVADVPVEESAPWRQAALRHNVAPIFICPPNADDDLLRQIASYGRGYTYLLSRAGVTGAENRAALPLNHLVAKLKEYNAAPPLQGFGISAPDQVKAAIDAGAAGAISGSAIVKIIEQHINEPEKMLAALKVWVQPMKAATRS [F139W F258W] | 0.8 kcal/mol | 2.1 kcal/mol/M and 1.3 kcal/mol/M | 2.67 M and 3.51 M | 5.6 kcal/mol and 4.4 kcal/mol |
